Assay results reported in patent publication US20260242478A1 (published 2026).
Where no end group is shown, it is not given here.

Key:
006 PSMA Fab [1] = target: T1, 006 PSMA Fab (biotinylated (site not given)); experiment: clonal phage ELISA on plate-bound PSMA Fab, competitor: PSMA antigen pre-incubated in the wells
T1 construct: Biotinylated PSMA Fab captured on neutravidin coated plates for the clonal phage ELISA; also called Anti-PSMA Fab

006 PSMA Fab [2] = target: T1, 006 PSMA Fab; experiment: clonal phage ELISA, biotinylated PSMA Fab on neutravidin plate, anti-M13 HRP detection;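 further: crude clonal phage supernatants added to wells pretreated with blocking buffer either with or without PSMA antigen, bound phage read after washing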
Procedure: (§1) Clonal phage were harvested as crude supernatants and screened via standard ELISAs. […] Prior to the addition of clonal phage. wells were incubated with blocking buffer and PSMA antigen or blocking buffer alone. Without washing or aspirating, clonal phage supernatants were then added to the wells and incubated for a short time. Wells were then washed followed by detection of bound phage using a horse radish conjugated anti-M13 antibody.

PSMA Fab (006 PSMA Fab) [3] = target: T2, PSMA Fab (006 PSMA Fab); experiment: clonal phage ELISA; biotinylated PSMA Fab on neutravidin plate, wells pre-incubated with PSMA antigen as competitor; anti-M13 HRP detection;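 further: crude clonal phage supernatants added to antigen-treated wells without a wash, incubated briefly, then bound phage read out via horse radish–conjugated anti-M13 antibody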
T2 construct: also called Anti-PSMA Fab; anti-PSMA Fab
Procedure: as §1

PSMA Fab (006 PSMA Fab) [4] = target: T2, PSMA Fab (006 PSMA Fab); experiment: clonal phage ELISA; biotinylated PSMA Fab on neutravidin plate, blocking buffer alone; anti-M13 HRP detection;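 further: crude clonal phage supernatants added without washing to wells pretreated with blocking buffer with or without PSMA antigen, short incubation, then washed before detecting bound phage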
Procedure: as §1

B1: Phage-2504 (peptide)
peptide: IPKWCTPSWMCEWV
modifications: cysteine pairing not given here; also: displayed on phage as fusion to pIII, pIII and linker sequence not given here
notes: not shown: fused to pIII of the bacteriophage
Phage binding ELISA signal, Anti-PSMA Fab in presence of PSMA (006 PSMA Fab [1]): 0.0916
Phage binding ELISA signal, Anti-PSMA Fab (006 PSMA Fab [2]): 1.2

B2: Phage-2505 (peptide)
peptide: LGKWCIPDWMCSGL
modifications: cysteine pairing not given here; also: displayed on phage as fusion to pIII, pIII and linker sequence not given here
notes: as for B1
Phage binding ELISA signal, Anti-PSMA Fab in presence of PSMA (006 PSMA Fab [1]): 0.144
Phage binding ELISA signal, Anti-PSMA Fab (006 PSMA Fab [2]): 1.2

B3: Phage-2506 (peptide)
peptide: VQMLCIPAWMCGME
modifications: cysteine pairing not given here; also: displayed on phage as fusion to pIII, pIII and linker sequence not given here
notes: as for B1
Phage binding ELISA signal, Anti-PSMA Fab in presence of PSMA (006 PSMA Fab [1]): 0.107
Phage binding ELISA signal, Anti-PSMA Fab (006 PSMA Fab [2]): 1.2

B4: Phage-2507 (peptide)
peptide: VERLCKPLWMCQER
modifications: cysteine pairing not given here; also: fused to phage pIII, linker and fusion site not given here
notes: as for B1
Phage binding ELISA signal, Anti-PSMA Fab in presence of PSMA (006 PSMA Fab [1]): 0.0748
Phage binding ELISA signal, Anti-PSMA Fab (006 PSMA Fab [2]): 1.2

B5: Phage-2508 (peptide)
peptide: HPSWCTPAWMCQGF
modifications: cysteine pairing not given here; also: fused to phage pIII, linker and fusion site not given here
notes: as for B1
Phage binding ELISA signal, Anti-PSMA Fab in presence of PSMA (006 PSMA Fab [1]): 0.0911
Phage binding ELISA signal, Anti-PSMA Fab (006 PSMA Fab [2]): 1.2

B6: Phage-2509 (peptide)
peptide: TYKMCIPAWKCAVS
modifications: cysteine pairing not given here; also: fused to phage pIII, linker and fusion site not given here
notes: as for B1
Phage binding ELISA signal, Anti-PSMA Fab in presence of PSMA (006 PSMA Fab [1]): 0.0792
Phage binding ELISA signal, Anti-PSMA Fab (006 PSMA Fab [2]): 1.19

B7: Phage-2510 (peptide)
peptide: EVKWCIPDWMCSVI
modifications: cysteine pairing not given here; also: fused to phage pIII, linker and fusion site not given here
notes: as for B1
Phage binding ELISA signal, Anti-PSMA Fab in presence of PSMA (006 PSMA Fab [1]): 0.0782
Phage binding ELISA signal, Anti-PSMA Fab (006 PSMA Fab [2]): 1.19

B8: Phage-2511 (peptide)
peptide: LVKLCSPEWMCVGM
modifications: cysteine pairing not given here; also: fused to phage pIII, linker and fusion site not given here
notes: as for B1
Phage binding ELISA signal, Anti-PSMA Fab in presence of PSMA (006 PSMA Fab [1]): 0.0667
Phage binding ELISA signal, Anti-PSMA Fab (006 PSMA Fab [2]): 1.19

LGKMCIPLWMCDGL (Row prints L G K M - I - L - - - D - L) [Phage-2512]
Phage binding ELISA signal, Anti-PSMA Fab in presence of PSMA antigen (PSMA Fab (006 PSMA Fab) [3]): 0.0573
Phage binding ELISA signal, Anti-PSMA Fab (PSMA Fab (006 PSMA Fab) [4]): 1.19

SLELCRPEWMCVGF (Row prints S L E - - R - E - - - V - -) [Phage-2513]
Phage binding ELISA signal, Anti-PSMA Fab in presence of PSMA antigen (PSMA Fab (006 PSMA Fab) [3]): 0.0955
Phage binding ELISA signal, Anti-PSMA Fab (PSMA Fab (006 PSMA Fab) [4]): 1.19

EIKWCTPAWMCAIN (Row prints E I K W - T - A - - - - I N) [Phage-2514]
Phage binding ELISA signal, Anti-PSMA Fab in presence of PSMA antigen (PSMA Fab (006 PSMA Fab) [3]): 0.0972
Phage binding ELISA signal, Anti-PSMA Fab (PSMA Fab (006 PSMA Fab) [4]): 1.18

LTQWCIPQWMCEGS (Row prints L T Q W - I - Q - - - E - S) [Phage-2515]
Phage binding ELISA signal, Anti-PSMA Fab in presence of PSMA antigen (PSMA Fab (006 PSMA Fab) [3]): 0.0537
Phage binding ELISA signal, Anti-PSMA Fab (PSMA Fab (006 PSMA Fab) [4]): 1.18

VPKWCTPAWMCTGL (Row prints V P K W - T - A - - - T - L) [Phage-2516]
Phage binding ELISA signal, Anti-PSMA Fab in presence of PSMA antigen (PSMA Fab (006 PSMA Fab) [3]): 0.0721
Phage binding ELISA signal, Anti-PSMA Fab (PSMA Fab (006 PSMA Fab) [4]): 1.18

VDNWCTPMWMCAWI (Row prints V D N W - T - M - - - - W I) [Phage-2517]
Phage binding ELISA signal, Anti-PSMA Fab in presence of PSMA antigen (PSMA Fab (006 PSMA Fab) [3]): 0.109
Phage binding ELISA signal, Anti-PSMA Fab (PSMA Fab (006 PSMA Fab) [4]): 1.18

IDPRCIPEWMCIGY (Row prints - D P R - I - E - - - I - Y) [Phage-2518]
Phage binding ELISA signal, Anti-PSMA Fab in presence of PSMA antigen (PSMA Fab (006 PSMA Fab) [3]): 0.0633
Phage binding ELISA signal, Anti-PSMA Fab (PSMA Fab (006 PSMA Fab) [4]): 1.18

VPIWCTPEWMCSGF (Row prints V P I W - T - E - - - S - -) [Phage-2519]
Phage binding ELISA signal, Anti-PSMA Fab in presence of PSMA antigen (PSMA Fab (006 PSMA Fab) [3]): 0.0879
Phage binding ELISA signal, Anti-PSMA Fab (PSMA Fab (006 PSMA Fab) [4]): 1.18

PIPLCIPLWMCEER (Row prints P I P - - I - L - - - E E R) [Phage-2520]
Phage binding ELISA signal, Anti-PSMA Fab in presence of PSMA antigen (PSMA Fab (006 PSMA Fab) [3]): 0.0838
Phage binding ELISA signal, Anti-PSMA Fab (PSMA Fab (006 PSMA Fab) [4]): 1.18

DNKWCIPEWMCFAS (Row prints D N K W - I - E - - - F A S) [Phage-2521]
Phage binding ELISA signal, Anti-PSMA Fab in presence of PSMA antigen (PSMA Fab (006 PSMA Fab) [3]): 0.0796
Phage binding ELISA signal, Anti-PSMA Fab (PSMA Fab (006 PSMA Fab) [4]): 1.18

HERSCIPAWMCWRQ (Row prints H E R S - I - A - - - W R Q) [Phage-2522]
Phage binding ELISA signal, Anti-PSMA Fab in presence of PSMA antigen (PSMA Fab (006 PSMA Fab) [3]): 0.0706
Phage binding ELISA signal, Anti-PSMA Fab (PSMA Fab (006 PSMA Fab) [4]): 1.18
